Test results reported in US20230181756A1, “CCR7 ANTIBODY DRUG CONJUGATES FOR TREATING CANCER” (Novartis AG, priority 2020, published 2023).

Tests used:
[1] = test system: DEL; experiment: ADC cell viability assay (CellTiter-Glo, four days); type: cell-based; details: CCR7 receptor levels ~100,000
Method: (§1) Cytotoxic effects after binding of directly conjugated antibodies (ADCs) with various payloads and their internalization into CCR7(+) cells were studied by assessing cell viability after four days of treatment. Three fold dilutions of the ADCs were added to 384-well bottom white plates in triplicates ([…]). […] Cells were harvested (adherent cells were detached with Accutase) and resuspended to approximately 2×10^4 cells/ml. Cells were added to 384-well plates on top of the antibody (20 μl/well). The plates were incubated for four days at 37° C. and 5% CO2. Subsequently, 20 µl/well of CellTiter-Glo solution (CellTiter-Glo® Luminescent Cell Viability Assay; Promega, #G7571) was prepared and added to the cells. Cell viability was determined by the luminescence signal, which was measured after 10 min of incubation at 22° C. and 400 rpm with the Envision reader. IC50 values were calculated using the Graphpad Prism software.

[2] = test system: KE97; experiment: as above; type: cell-based; details: KE97, CCR7 receptor levels ~100,000
Method: as §1

[3] = test system: SR786; experiment: as above; type: cell-based; details: SR786, CCR7 receptor levels ~28,000
Method: as §1
(§2) To assess the ADCs for target-specificity and receptor-level dependency, ADC activity was tested across cell lines with different CCR7 receptor levels. […] Cell lines were chosen based on similar sensitivity to payload.

[4] = test system: DND-41; experiment: as above; type: cell-based; details: DND-41 (T cell leukemia), CCR7 receptor levels 1,700
Method: as §1, §2

[5] = test system: NCI-H82; experiment: as above; type: cell-based; details: NCI-H82 (Small cell lung cancer), CCR7 receptor levels 0
Method: as §1, §2

[6] = test system: CML-T1; experiment: as above; type: cell-based; details: CML-T1, CCR7 receptor levels ~29,000
Method: as §1, §2

[7] = test system: CCR7 and CD20 expressing JVM2 cells; experiment: surrogate ADCC reporter assay (Jurkat-V158 effector cells); type: cell-based; details: JVM2 target cells and Jurkat-V158 effector cells
Method: Capacity of candidate antibodies to mediate ADCC was assessed using a surrogate ADCC reporter assay. CCR7 and CD20 expressing JVM2 cells were used as target cells. JVM2 cells were washed and re-suspended at 8×10^4 cells/ml cells/ml. Effector cells in this assay were a Jurkat cell line stably expressing CD16V158 and an NFAT dependent luciferase reporter (Jurkat-V158); expression of luciferase is a surrogate for canonical ADCC signaling through CD16. Briefly, Jurkat-V158 cells grown in suspension were spun down to remove spent media, the pellet was resuspended in assay media and adjusted to 1.6×10^6 cells/ml cells/mL. Mix equal volumes of effector and target cells to make a master mix of cells yielding a target to effector cell ratio of 1:5 or 1:20. A titration of antibody was diluted in assay media with a final top concentration of 50 ug/mL in the assay well. 12.5 uL of Ab solution was added to a 384 well round bottom plate and then 12.5 ul of the master cell mix was added. Antibody and cells were mixed well by pipetting and incubated for 4 hours at 37° C. in 5% CO2. Following incubation, 15 uL of Bright Glo substrate (Promega #G7572) was added to each well and shaken for 5 min at RT at 1050 rpm. Luminescent signal was read on the Envision plate reader (Perkin Elmer). […]

[8] = test system: PF382 cells (CCR7−/CCR9+/CCR6+); experiment: FACS binding, selectivity
Method: (§3) The affinity of various antibodies and ADCs to CCR7 and its species orthologues was determined using FACS. Purified IgGs were titrated to determine EC50 values for binding to cell surface expressed CCR7.
(§4) For this purpose, CCR7 positive cells were harvested (adherent cells were detached with Accutase), washed twice with FACS buffer (PBS/3% FCS/0.02% sodium azide) and diluted to approximately 2×10^6 cells/ml in FACS buffer. All subsequent steps were done on ice to prevent internalization of the receptor. 100 μl cell suspension/well were transferred into 96-well U-bottom plates (Falcon). 2×10^5 cells/well were incubated with a serial dilution of antibody concentrations of the anti-CCR7 antibody-of-interest ranging across several logs, starting at a high of 100 nM for 60 minutes at 4° C., gently shaking. […] After a final wash, cells were resuspended in 100 μl of FACS buffer containing 0.2 μg/ml DAPI followed by readout on the flow cytometry machine (BD LSRFortessa Cell Analyzer; Cat #647177). Mean fluorescence intensity (MFI) of live, single cells was calculated in Flowjo 10.0.8 and exported into Graphpad Prism6 for EC50 determination.
(§5) Selectivity was assessed by measuring apparent binding affinities to isogenic cell pairs engineered to overexpress CCR7 as well as cell lines expressing CCR7 paralogs, e.g., CCR9, CCR6, CXCR4 and CCR8.

[9] = test system: NIH3T3 cells; experiment: FACS binding, selectivity
Method: as §3, §4, §5

[10] = molecular target: T1, CXCR4 (HEK293-CXCR4) (Homo sapiens, UniProt P61073); experiment: FACS binding, selectivity (CCR7 paralogs)
T1 construct: expressed in transfected cells; host or cells: HEK293
Method: as §3, §4, §5

[11] = molecular target: T2, CCR8 (CHO-CCR8) (Homo sapiens, UniProt P51685); experiment: FACS binding, selectivity (CCR7 paralogs)
T2 construct: expressed in transfected cells; host or cells: CHO
Method: as §3, §4, §5

[12] = molecular target: T3, human CCR7 (NIH3T3.hCCR7 cells) (Homo sapiens, UniProt P32248); experiment: FACS binding to cell surface expressed CCR7
T3 construct: Full length human, cyno and mouse CCR7 genes were synthesized; expressed in transfected cells; host or cells: NIH/3T3 (retroviral transduction)
T3 sequence (P32248 25-378): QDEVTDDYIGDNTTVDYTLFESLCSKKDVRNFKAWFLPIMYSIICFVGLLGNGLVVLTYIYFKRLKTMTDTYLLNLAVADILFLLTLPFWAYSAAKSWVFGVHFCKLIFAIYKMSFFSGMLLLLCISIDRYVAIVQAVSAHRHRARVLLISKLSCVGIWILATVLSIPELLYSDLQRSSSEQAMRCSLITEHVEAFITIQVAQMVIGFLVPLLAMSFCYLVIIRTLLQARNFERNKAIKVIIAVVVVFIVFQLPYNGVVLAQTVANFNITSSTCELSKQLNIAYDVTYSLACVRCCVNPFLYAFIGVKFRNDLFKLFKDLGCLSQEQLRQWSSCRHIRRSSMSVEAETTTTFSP
Method: as §3, §4
Selectivity was assessed by measuring apparent binding affinities to isogenic cell pairs engineered to overexpress CCR7 as well as cell lines expressing CCR7 paralogs, e.g., CCR9, CCR6, CXCR4 and CCR8. […]

T2 sequence (P51685 whole entry, species assumed): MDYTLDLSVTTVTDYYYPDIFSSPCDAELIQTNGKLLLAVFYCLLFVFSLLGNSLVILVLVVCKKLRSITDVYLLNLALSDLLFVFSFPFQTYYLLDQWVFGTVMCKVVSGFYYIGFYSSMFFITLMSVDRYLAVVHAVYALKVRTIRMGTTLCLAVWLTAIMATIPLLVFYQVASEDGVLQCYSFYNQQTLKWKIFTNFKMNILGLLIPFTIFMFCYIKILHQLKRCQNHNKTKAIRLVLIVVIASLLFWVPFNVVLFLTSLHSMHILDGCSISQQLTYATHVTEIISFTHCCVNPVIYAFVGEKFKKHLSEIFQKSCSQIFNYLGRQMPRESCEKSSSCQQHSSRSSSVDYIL
T1 sequence (P61073 whole entry, species assumed): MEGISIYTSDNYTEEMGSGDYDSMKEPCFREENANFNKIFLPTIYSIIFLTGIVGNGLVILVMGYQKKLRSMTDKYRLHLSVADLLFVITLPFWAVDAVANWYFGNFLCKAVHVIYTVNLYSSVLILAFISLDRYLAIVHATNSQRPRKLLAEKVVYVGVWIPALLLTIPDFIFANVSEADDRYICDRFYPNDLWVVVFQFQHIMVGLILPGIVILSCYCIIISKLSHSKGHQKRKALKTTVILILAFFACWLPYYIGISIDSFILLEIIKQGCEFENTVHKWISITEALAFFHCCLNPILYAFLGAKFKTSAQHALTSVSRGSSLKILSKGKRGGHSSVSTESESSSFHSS

B1: 674J13.CysMab.DAPA.AURIX2 (conjugate)
heavy: DVQLQESGPGLVKPSQTLSLTCTVSGYSITSGYSWHWIRQHPGKGLEWMAHIHSSGSTNYNPSLKSRITISRDTSKNQFSLKLSSVTAADTAVYYCARGGVQAFAYWGQGTLVTVSSASTKGPSVFPLAPSSKSTSGGTAALGCLVKDYFPCPVTVSWNSGALTSGVHTFPAVLQSSGLYSLSSVVTVPSSSLGTQTYICNVNHKPSNTKVDKRVEPKSCDKTHTCPPCPAPELLGGPSVFLFPPKPKDTLMISRTPEVTCVVVAVSHEDPEVKFNWYVDGVEVHNAKTKPREEQYNSTYRVVSVLTVLHQDWLNGKEYKCKVSNKALAAPIEKTISKAKGQPREPQVYTLPPSREEMTKNQVSLTCLVKGFYPCDIAVEWESNGQPENNYKTTPPVLDSDGSFFLYSKLTVDKSRWQQGNVFSCSVMHEALHNHYTQKSLSLSPGK
light: EIVLTQSPATLSASPGERVTMSCSASSSVIYMHWYQQKPGQAPRRWIYDTSKLASGVPARFSGSGSGTDYTLTISSMEPEDAAVYYCQQWSSNPLTFGQGTKLEIKRTVAAPSVFIFPPSDEQLKSGTASVVCLLNNFYPREAKVQWKVDNALQSGNSQESVTEQDSKDSTYSLSSTLTLSKADYEKHKVYACEVTHQGLSSPVTKSFNRGEC
With B1 the “AMAX, cell viability assay” value [1] was > 95%, the “AMAX, cell viability assay” value [2] was > 95% and the “AMAX, cell viability assay” value [3] was 90%. The “AMAX, cell viability assay” value [4] was <20% AMAX, the “ADC activity in cell viability assay; IC50 (nM)” value [5] was “No killing” and the “AMAX, cell viability assay” value [6] was 60%.

B2: 121G12 humanized CysMab: humanized anti-CCR7 antibody 121G12, CysMab, Fc wild type (antibody, V domains shown)
VH: EVQLVESGGGLVKPGGSLRLSCAASGFTFSTYAMSWVRQAPGKGLEWVATISDAGSYSYYPDNVKGRFTISRDNAKNSLYLQMNSLRAEDTAVYYCARRGSRYEEYYVMDYWGQGTTVTVSS
VL: EIVLTQSPATLSVSPGERVTLSCRASQSISNNLHWYQQKPGQAPRLLIKYASQSISGIPARFSGSGSGTDFTLTISSVEPEDFGVYFCQQSSSWLTFGQGTKLEIK
For B2, the “ADCC activity; IC50 (nM)” value [7] was “Yes, but insufficient”, the “Apparent FACS binding (at 5 ug/ml)” value [8] was “No binding” and the “Apparent FACS binding (at 5 ug/ml)” value [9] was “No binding”. The “Apparent FACS binding (at 5 ug/ml)” value [10] was “No binding”, the “Apparent FACS binding (at 5 ug/ml)” value [11] was “No binding” and the “Apparent FACS binding (at 5 ug/ml)” value [12] was “Binding”.
